Data reported in publication PMC8789047 (Nucleic Acids Research, 2021).

B1: Strep II-ECD (natural protein)
chain: MEETMKLATMEDTVEYCLFLIPDESRDSDKHKEILQKYIERIITRFAPMLVPYIWQNQPFNLKYKPGKGGVPAHMFGVTKFGDNIEDEWFIVYVIKQITKEFPELVARIEDNDGEFLLIEAADFLPKWLDPENSTNRVFFCHGELCIIPAPRKSGAESWLPTTPPTIPQALNIITAHSEKILASESIRAAVNRRIRGYPEKIQASLHRAHCFLPAGIVAVLKQRPRLVAAAVQAFYLRDPIDLRACRVFKTFLPETRIMTSVTFTKCLYAQLVQQRFVPDRRSGYRLPPPSDPQYRAHELGMKLAHGFEILCSKCSPHFSDCKKSLVTASPLWASFLESLKKNDYFKGLIEGSAQYRERLEMAENYFQLSVDWPESSLAMSPGEEILTLLQTIPFDIEDLKKEAANLPPEDDDQWLDLSPDQLDQLLQEAVGKKESESVSKEEKEQNYDLTEVSESMKAFISKVSTHKGAELPREPSEAPITFDADSFLNYFDKILGPRPNESDSDDLDDEDFECLDSDDDLDFETHEPGEEASLKGTLDNLKSYMAQMDQELAHTCISKSFTTRNQVEPVSQTTDNNSDEEDSGTGESVMAPVDVDLNLVSNILESYSSQAGLAGPASNLLQSMGVQLPDNTDHRPTSKPTKN
B2: AAR2-His (natural protein)
chain: MAAVQMDPELAKRLFFEGATVVILNMPKGTEFGIDYNSWEVGPKFRGVKMIPPGIHFLHYSSVDKANPKEVGPRMGFFLSLHQRGLTVLRWSTLREEVDLSPAPESEVEAMRANLQELDQFLGPYPYATLKKWISLTNFISEATVEKLQPENRQICAFSDVLPVLSMKHTKDRVGQNLPRCGIECKSYQEGLARLPEMKPRAGTEIRFSELPTQMFPEGATPAEITKHSMDLSYALETVLNKQFPSSPQDVLGELQFAFVCFLLGNVYEAFEHWKRLLNLLCRSEAAMMKHHTLYINLISILYHQLGEIPADFFVDIVSQDNFLTSTLQVFFSSACSIAVDATLRKKAEKFQAHLTKKFRWDFAAEPEDCAPVVVELPEGIEMG
B3: 6xHis-AAR2-Strep II (natural protein)
chain: MAAVQMDPELAKRLFFEGATVVILNMPKGTEFGIDYNSWEVGPKFRGVKMIPPGIHFLHYSSVDKANPKEVGPRMGFFLSLHQRGLTVLRWSTLREEVDLSPAPESEVEAMRANLQELDQFLGPYPYATLKKWISLTNFISEATVEKLQPENRQICAFSDVLPVLSMKHTKDRVGQNLPRCGIECKSYQEGLARLPEMKPRAGTEIRFSELPTQMFPEGATPAEITKHSMDLSYALETVLNKQFPSSPQDVLGELQFAFVCFLLGNVYEAFEHWKRLLNLLCRSEAAMMKHHTLYINLISILYHQLGEIPADFFVDIVSQDNFLTSTLQVFFSSACSIAVDATLRKKAEKFQAHLTKKFRWDFAAEPEDCAPVVVELPEGIEMG

Key:
PRPF8-Flag = PRPF8-Flag (human, UniProt Q6P2Q9 1-2335); assay: pull-down
RUVBL1–RUVBL2 complex = RUVBL1–RUVBL2 complex (human, UniProt Q9Y265;Q9Y230); assay: pull-down
RUVBL2 [1] = molecular target: T1, RUVBL2 (human, UniProt Q9Y230 1-463); assay: pull-down
Strep II-ECD = molecular target: B1; assay: pull-down
[2] = molecular target: His-RUVBL1–RUVBL2 complex (human, UniProt Q9Y265;Q9Y230); assay: pull-down
RUVBL1 [3] = molecular target: T2, RUVBL1 (human, UniProt Q9Y265 1-456); assay: pull-down
AAR2-His = molecular target: B2; assay: pull-down
6xHis-AAR2-Strep II = molecular target: B3; assay: pull-down
RUVBL2 [4] = molecular target: T1, RUVBL2; assay: cross-linking
RUVBL1 [5] = molecular target: T2, RUVBL1; assay: cross-linking

binding result (PRPF8-Flag) | binding result (RUVBL1–RUVBL2 complex) | binding result (RUVBL2 [1]) | binding result (Strep II-ECD) | binding result (RUVBL1 [3]) | Binder | other results
binds | binds |  |  |  | B1 | 
 | binds | binds | binds | binds | GST-ZNHIT2ΔC (domain or fragment) MEPAGPCGFCPAGEVQPARYTCPRCNAPYCSLRCYRTHGTCAENFYRDQVLGELRGCSAPPSRLASALRRLRQQRETEDEPGEAGLSSGPAPGGLSGLWERLAPGEKAAFERLLSRGEAGRLLPPWRPWWWNRGAGPQLLEELDNAPGSDAAELELAPARTPPDSVKDASAAEPAAAERVLGDVPGACTPVVPTRIPAIVSLSRGPVSPLVRFQLPNVLFAYAHTLALYHGGDDALLSDFCATLLGVSGALGAQQVFASAEEALQAAAHVLEAGEHPPGPLGTRGAMHEVARILLGEGPTNQKGYTLAALGDLAQTLGRARKQAVAREERDHLYRARKKCQFLLAWTNENEAALTPLALDCARAHQAHAVVAEEV | binding result [2]: binds
binds |  |  | binds |  | ZNHIT2ΔC (domain or fragment) MEPAGPCGFCPAGEVQPARYTCPRCNAPYCSLRCYRTHGTCAENFYRDQVLGELRGCSAPPSRLASALRRLRQQRETEDEPGEAGLSSGPAPGGLSGLWERLAPGEKAAFERLLSRGEAGRLLPPWRPWWWNRGAGPQLLEELDNAPGSDAAELELAPARTPPDSVKDASAAEPAAAERVLGDVPGACTPVVPTRIPAIVSLSRGPVSPLVRFQLPNVLFAYAHTLALYHGGDDALLSDFCATLLGVSGALGAQQVFASAEEALQAAAHVLEAGEHPPGPLGTRGAMHEVARILLGEGPTNQKGYTLAALGDLAQTLGRARKQAVAREERDHLYRARKKCQFLLAWTNENEAALTPLALDCARAHQAHAVVAEEV | binding result (AAR2-His): binds; binding result (6xHis-AAR2-Strep II): binds; binding result (RUVBL2 [4]): binds; binding result (RUVBL1 [5]): binds
 |  |  | binds |  | B2 | 
 | binds |  |  |  | B3 | 
 | binds | binds |  | binds | GST-ZNHIT2-C (domain or fragment) GPVSPLVRFQLPNVLFAYAHTLALYHGGDDALLSDFCATLLGVSGALGAQQVFASAEEALQAAAHVLEAGEHPPGPLGTRGAMHEVARILLGEGPTNQKGYTLAALGDLAQTLGRARKQAVAREERDHLYRARKKCQFLLAWTNENEAALTPLALDCARAHQAHAVVAEEV | 
